Reference: article PMC5653825, “Arrhythmogenic cardiomyopathy related DSG2 mutations affect desmosomal cadherin binding kinetics” (Scientific Reports, 2017)
Changes are numbered by the printed parent chain. Numbers in names are those of the source.

Legend:
Dsg2 (Homo sapiens) = Dsg2 (Homo sapiens) (UniProt Q14126); assay: sedimentation equilibrium AUC; settings: cited from earlier work
[1] = biological target: the molecule itself; assay: AFM single molecule force spectroscopy; Dsg2 EC1-4 covalently immobilised on both the AFM tip (long PEG linker) and the gold substrate; calcium buffer (2 mM CaCl2, 10 mM HEPES, 150 mM NaCl, pH 7.4); pulling velocities 200 to 5,000 nm s^-1; k- and x from the Evans and Ritchie model, Kd and k+ from the free energy by Jarzynski's equality; monomer to homodimer

## Dsg2 (from UniProt Q14126)
Dsg2 (Homo sapiens)
  Kd: 433 µM

B1: Desmoglein-2 (Dsg2) p.V343I (p.V392I), recombinant extracellular cadherin domains 1-4 (EC1-4) (domain or fragment)
chain: AWITAPVALREGEDLSKKNPIAKIHSDLAEERGLKITYKYTGKGITEPPFGIFVFNKDTGELNVTSILDREETPFFLLTGYALDARGNNVEKPLELRIKVLDINDNEPVFTQDVFVGSVEELSAAHTLVMKINATDADEPNTLNSKISYRIVSLEPAYPPVFYLNKDTGEIYTTSVTLDREEHSSYTLTVEARDGNGEVTDKPVKQAQVQIRILDVNDNIPVVENKVLEGMVEENQVNVEVTRIKVFDADEIGSDNWLANFTFASGNEGGYFHIETDAQTNEGIVTLIKEVDYEEMKNLDFSVIVANKAAFHKSIRSKYKPTPIPIKVKVKNVKEGIHFKSSIISIYVSESMDRSSKGQIIGNFQAFDEDTGLPAHARYVKLEDRDNWISVDSVTSEIKLAKLPDFESRYVQNGTYTVKIVAISEDYPRKTITGTVLINVEDINDNCPTLIEPV
modifications: thiol of the unique cysteine C447 (C496) covalently coupled to the maleimide of a cross-linker (maleimide-PEG-succinimidyl valerate 3,400 on the cantilever; NHS 3-maleimidopropionate on the gold substrate)
[1]
  Kd: 1010 µM
  bond lifetime tau: 1.73 s
  koff: 0.58 s⁻¹
  kon: 573 M⁻¹ s⁻¹

B2: Desmoglein-2 (Dsg2) wildtype, recombinant extracellular cadherin domains 1-4 (EC1-4) (domain or fragment)
chain: B1 chain with I343V
modifications: thiol of the unique cysteine C447 (C496) covalently coupled to the maleimide of a cross-linker (maleimide-PEG-succinimidyl valerate 3,400 on the cantilever; NHS 3-maleimidopropionate on the gold substrate)
[1]
  Kd: 412 µM
  bond lifetime tau: 0.33 s
  koff: 2.99 s⁻¹
  kon: 7270 M⁻¹ s⁻¹

B3: Desmoglein-2 (Dsg2) p.D105E (p.D154E), recombinant extracellular cadherin domains 1-4 (EC1-4) (domain or fragment)
chain: B1 chain with D105E, I343V
modifications: thiol of the unique cysteine C447 (C496) covalently coupled to the maleimide of a cross-linker (maleimide-PEG-succinimidyl valerate 3,400 on the cantilever; NHS 3-maleimidopropionate on the gold substrate)
[1]
  Kd: 817 µM
  bond lifetime tau: 3.39 s
  koff: 0.3 s⁻¹
  kon: 361 M⁻¹ s⁻¹
